Data reported in the supplement of paper PMC5998384.

Experiments:
HeLa Kyoto [1] = assay: solubility in G1/S (NP-40 vs SDS abundance) (log2 ratio); higher = more soluble; conditions: cell cycle stage: G1/S
HeLa Kyoto [2] = assay: solubility change mitosis vs G1/S (difference of NP-40 vs SDS log2 ratios) (log2 ratio difference); higher = more soluble in mitosis
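Throughout, for solubility change mitosis vs G1/S (difference of NP-40 vs SDS log2 ratios): synchronized HeLa Kyoto cells (double thymidine block for G1/S, nocodazole release for mitosis), protein amounts in NP-40 versus SDS lysates quantified by mass spectrometry, three biological replicates.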
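Throughout, for solubility in G1/S (NP-40 vs SDS abundance): HeLa Kyoto cells arrested at G1/S by double thymidine block, proteins quantified by TMT10plex mass spectrometry in mild NP-40 versus SDS extracts, three biological replicates.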

Chain of MAFK (chain, as listed by the source): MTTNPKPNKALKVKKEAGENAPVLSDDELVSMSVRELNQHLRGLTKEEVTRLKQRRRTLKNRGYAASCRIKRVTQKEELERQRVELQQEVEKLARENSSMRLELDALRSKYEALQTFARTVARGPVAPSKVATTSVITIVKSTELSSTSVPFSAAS

Substance | solubility in G1/S (log2) (HeLa Kyoto [1]) | solubility change mitosis (log2) (HeLa Kyoto [2])
MAELRQVPGGRETPQGELRPEVVEDEVPRSPVAEEPGGGGSSSSEAKLSPREEEELDPRIQEELEHLNQASEEINQVELQLDEARTTYRRILQESARKLNTQGSHLGSCIEKARPYYEARRLAKEAQQETQKAALRYERAVSMHNAAREMVFVAEQGVMADKNRLDPTWQEMLNHATCKVNEAEEERLRGEREHQRVTRLCQQAEARVQALQKTLRRAIGKSRPYFELKAQFSQILEEHKAKVTELEQQVAQAKTRYSVALRNLEQISEQIHARRRGGLPPHPLGPRRSSPVGAEAGPEDMEDGDSGIEGAEGAGLEEGSSLGPGPAPDTDTLSLLSLRTVASDLQKCDSVEHLRGLSDHVSLDGQELGTRSGGRRGSDGGARGGRHQRSVSL [SH3BP5L] | 0.128 | -0.0461
MAELYVKPGNKERGWNDPPQFSYGLQTQAGGPRRSLLTKRVAAPQDGSPRVPASETSPGPPPMGPPPPSSKAPRSPPVGSGPASGVEPTSFPVESEAVMEDVLRPLEQALEDCRGHTRKQVCDDISRRLALLQEQWAGGKLSIPVKKRMALLVQELSSHRWDAADDIHRSLMVDHVTEVSQWMVGVKRLIAEKRSLFSEEAANEEKSAATAEKNHTIPGFQQAS [SRA1] | 0.0612 | 0.9
MAEPVQEELSVLAAIFCRPHEWEVLSRSETDGTVFRIHTKAEGFMDVDIPLELVFHLPVNYPSCLPGISINSEQLTRAQCVTVKENLLEQAESLLSEPMVHELVLWIQQNLRHILSQPETGSGSEKCTFSTSTTMDDGLWITLLHLDHMRAKTKYVKIVEKWASDLRLTGRLMFMGKIILILLQGDRNNLKEYLILQKTSKVDVDSSGKKCKEKMISVLFETKVQTEHKRFLAFEVKEYSALDELQKEFETAGLKKLFSEFVLALVK [RWDD3] | 0.101 | -0.0953
MAFGKSHRDPYATSVGHLIEKATFAGVQTEDWGQFMHICDIINTTQDGPKDAVKALKKRISKNYNHKEIQLTLSLIDMCVQNCGPSFQSLIVKKEFVKENLVKLLNPRYNLPLDIQNRILNFIKTWSQGFPGGVDVSEVKEVYLDLVKKGVQFPPSEAEAETARQETAQISSNPPTSVPTAPALSSVIAPKNSTVTLVPEQIGKLHSELDMVKMNVRVMSAILMENTPGSENHEDIELLQKLYKTGREMQERIMDLLVVVENEDVTVELIQVNEDLNNAILGYERFTRNQQRILEQNKNQKEATNTTSEPSAPSQDLLDLSPSPRMPRATLGELNTMNNQLSGLNFSLPSSDVTNNLKPSLHPQMNLLALENTEIPPFAQRTSQNLTSSHAYDNFLEHSNSVFLQPVSLQTIAAAPSNQSLPPLPSNHPAMTKSDLQPPNYYEVMEFDPLAPAVTTEAIYEEIDAHQHKGAQNDGD [TOM1L1] | 0.297 | -0.0535
MAFK | 0.335 | 0.364
MAGGRCGPQLTALLAAWIAAVAATAGPEEAALPPEQSRVQPMTASNWTLVMEGEWMLKFYAPWCPSCQQTDSEWEAFAKNGEILQISVGKVDVIQEPGLSGRFFVTTLPAFFHAKDGIFRRYRGPGIFEDLQNYILEKKWQSVEPLTGWKSPASLTMSGMAGLFSISGKIWHLHNYFTVTLGIPAWCSYVFFVIATLVFGLFMGLVLVVISECFYVPLPRHLSERSEQNRRSEEAHRAEQLQDAEEEKDDSNEEENKDSLVDDEEEKEDLGDEDEAEEEEEEDNLAAGVDEERSEANDQGPPGEDGVTREEVEPEEAEEGISEQPCPADTEVVEDSLRQRKSQHADKGL [TMX4] | 0.144 | -0.172
MAGLGLGSAVPVWLAEDDLGCIICQGLLDWPATLPCGHSFCRHCLEALWGARDARRWACPTCRQGAAQQPHLRKNTLLQDLADKYRRAAREIQAGSDPAHCPCPGSSSLSSAAARPRRRPELQRVAVEKSITEVAQELTELVEHLVDIVRSLQNQRPLSESGPDNELSILGKAFSSGVDLSMASPKLVTSDTAAGKIRDILHDLEEIQEKLQESVTWKEAPEAQMQGELLEAPSSSSCPLPDQSHPALRRASRFAQWAIHPTFNLKSLSCSLEVSKDSRTVTVSHRPQPYRWSCERFSTSQVLCSQALSSGKHYWEVDTRNCSHWAVGVASWEMSRDQVLGRTMDSCCVEWKGTSQLSAWHMVKETVLGSDRPGVVGIWLNLEEGKLAFYSVDNQEKLLYECTISASSPLYPAFWLYGLHPGNYLIIKQVKV [RNF135] | 0.0392 | -0.147
MAGLTLFVGRLPPSARSEQLEELFSQVGPVKQCFVVTEKGSKACRGFGYVTFSMLEDVQRALKEITTFEGCKINVTVAKKKLRNKTKEKGKNENSECPKKEPKAKKAKVADKKARLIIRNLSFKCSEDDLKTVFAQFGAVLEVNIPRKPDGKMRGFGFVQFKNLLEAGKALKGMNMKEIKGRTVAVDWAVAKDKYKDTQSVSAIGEEKSHESKHQESVKKKGREEEDMEEEENDDDDDDDDEEDGVFDDEDEEEENIESKVTKPVQIQKRAVKRPAPAKSSDHSEEDSDLEESDSIDDGEELAQSDTSTEEQEDKAVQVSNKKKRKLPSDVNEGKTVFIRNLSFDSEEEELGELLQQFGELKYVRIVLHPDTEHSKGCAFAQFMTQEAAQKCLLAASPENEAGGLKLDGRQLKVDLAVTRDEAAKLQTTKVKKPTGTRNLYLAREGLIRAGTKAAEGVSAADMAKRERFELLKHQKLKDQNIFVSRTRLCLHNLPKAVDDKQLRKLLLSATSGEKGVRIKECRVMRDLKGVHGNMKGQSLGYAFAEFQEHEHALKALRLINNNPEIFGPLKRPIVEFSLEDRRKLKMKELRIQRSLQKMRSKPATGEPQKGQPEPAKDQQQKAAQHHTEEQSKVPPEQKRKAGSTSWTGFQTKAEVEQVELPDGKKRRKVLALPSHRGPKIRLRDKGKVKPVHPKKPKPQINQWKQEKQQLSSEQVSRKKAKGNKTETRFNQLVEQYKQKLLGPSKGAPLAKRSKWFDS [RBM28] | -2.35 | 1.56
MAGNFWQSSHYLQWILDKQDLLKERQKDLKFLSEEEYWKLQIFFTNVIQALGEHLKLRQQVIATATVYFKRFYARYSLKSIDPVLMAPTCVFLASKVEEFGVVSNTRLIAAATSVLKTRFSYAFPKEFPYRMNHILECEFYLLELMDCCLIVYHPYRPLLQYVQDMGQEDMLLPLAWRIVNDTYRTDLCLLYPPFMIALACLHVACVVQQKDARQWFAELSVDMEKILEIIRVILKLYEQWKNFDERKEMATILSKMPKPKPPPNSEGEQGPNGSQNSSYSQS [CCNC] | -0.272 | -0.0468
MAGPPALPPPETAAAATTAAAASSSAASPHYQEWILDTIDSLRSRKARPDLERICRMVRRRHGPEPERTRAELEKLIQQRAVLRVSYKGSISYRNAARVQPPRRGATPPAPPRAPRGAPAAAAAAAPPPTPAPPPPPAPVAAAAPARAPRAAAAAATAPPSPGPAQPGPRAQRAAPLAAPPPAPAAPPAVAPPAGPRRAPPPAVAAREPPLPPPPQPPAPPQQQQPPPPQPQPPPEGGAVRAGGAARPVSLREVVRYLGGSGGAGGRLTRGRVQGLLEEEAAARGRLERTRLGALALPRGDRPGRAPPAASARPSRSKRGGEERVLEKEEEEDDDEDEDEEDDVSEGSEVPESDRPAGAQHHQLNGERGPQSAKERVKEWTPCGPHQGQDEGRGPAPGSGTRQVFSMAAMNKEGGTASVATGPDSPSPVPLPPGKPALPGADGTPFGCPPGRKEKPSDPVEWTVMDVVEYFTEAGFPEQATAFQEQEIDGKSLLLMQRTDVLTGLSIRLGPALKIYEHHIKVLQQGHFEDDDPDGFLG [SAMD1] | -0.144 | 0.323
MAGRGSLVSWRAFHGCDSAEELPRVSPRFLRAWHPPPVSARMPTRRWAPGTQCITKCEHTRPKPGELAFRKGDVVTILEACENKSWYRVKHHTSGQEGLLAAGALREREALSADPKLSLMPWFHGKISGQEAVQQLQPPEDGLFLVRESARHPGDYVLCVSFGRDVIHYRVLHRDGHLTIDEAVFFCNLMDMVEHYSKDKGAICTKLVRPKRKHGTKSAEEELARAGWLLNLQHLTLGAQIGEGEFGAVLQGEYLGQKVAVKNIKCDVTAQAFLDETAVMTKMQHENLVRLLGVILHQGLYIVMEHVSKGNLVNFLRTRGRALVNTAQLLQFSLHVAEGMEYLESKKLVHRDLAARNILVSEDLVAKVSDFGLAKAERKGLDSSRLPVKWTAPEALKHGKFTSKSDVWSFGVLLWEVFSYGRAPYPKMSLKEVSEAVEKGYRMEPPEGCPGPVHVLMSSCWEAEPARRPPFRKLAEKLARELRSAGAPASVSGQDADGSTSPRSQEP [MATK] | -0.238 | 0.257
